Measurements published in patent publication US20250076311A1 (Chugai, published 2025).

How the values were obtained:
Mouse latent myostatin = target: T1, Mouse latent myostatin (mouse, UniProt O08689 26-267; O08689 268-376, limits assumed); assay: SPR (Biacore T200), 37C, pH 5.8, antibody captured on ProA/G
T1 sequence 1: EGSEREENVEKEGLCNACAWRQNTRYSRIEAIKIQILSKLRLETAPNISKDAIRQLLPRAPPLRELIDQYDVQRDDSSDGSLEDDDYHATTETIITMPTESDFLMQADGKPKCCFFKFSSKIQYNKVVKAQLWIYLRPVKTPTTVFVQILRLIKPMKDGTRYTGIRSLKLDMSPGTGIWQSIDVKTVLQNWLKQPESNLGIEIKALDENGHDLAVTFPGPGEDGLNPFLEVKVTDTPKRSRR
T1 sequence 2: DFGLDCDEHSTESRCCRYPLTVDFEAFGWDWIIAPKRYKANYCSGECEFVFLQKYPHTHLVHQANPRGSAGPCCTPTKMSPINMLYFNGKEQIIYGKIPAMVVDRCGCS
Experimental: ProA/G (Pierce) was immobilized onto all flow cells of a CM4 chip using an amine coupling kit (GE Healthcare). All antibodies and analytes were prepared in ACES pH7.4 or pH5.8 buffer containing 20 mM ACES, 150 mM NaCl, 1.2 mM CaCl₂, 0.05% TWEEN® 20, 0.005% NaN3. […] The sensor surface was regenerated each cycle with 10 mM Glycine HCl pH1.5. Binding affinity was determined by processing and fitting the data to a 1:1 binding model using BIACORE® T200 Evaluation software, version 2.0 (GE Healthcare).

[1] = target: T2, cynomolgus monkey FcγRIIb extracellular domain with C-terminal His-tag (cynomolgus monkey); assay: SPR (Biacore), antibody captured, FcgR analyte
T2 construct: also called cyno FcgRIIb; cynoFcγRIIb
T2 chain: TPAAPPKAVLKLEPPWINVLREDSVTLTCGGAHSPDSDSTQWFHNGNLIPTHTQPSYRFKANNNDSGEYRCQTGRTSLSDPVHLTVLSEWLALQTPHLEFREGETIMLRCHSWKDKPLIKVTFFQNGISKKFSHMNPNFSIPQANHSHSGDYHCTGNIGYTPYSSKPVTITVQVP

[2] = target: T3, human FcγRIIaH extracellular domain, His-tagged (human, UniProt P12318 34-217); assay: SPR (BIACORE), antibody captured, FcγR analyte, 25 C; KD of SG1 divided by KD of variant
T3 construct: also called human FcγRIIa (type H); FcgRIIaH
T3 sequence: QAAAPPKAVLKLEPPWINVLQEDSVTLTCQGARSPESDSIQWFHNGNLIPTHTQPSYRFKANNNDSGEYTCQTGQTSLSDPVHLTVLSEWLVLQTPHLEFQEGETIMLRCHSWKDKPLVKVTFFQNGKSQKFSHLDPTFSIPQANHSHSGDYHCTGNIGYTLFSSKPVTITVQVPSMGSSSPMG

[3] = target: T4, human FcγRIIb extracellular domain, His-tagged (human, UniProt P31994 43-217); assay: as above
T4 construct: also called human FcgRIIb; FcgRIIb (human)
T4 sequence: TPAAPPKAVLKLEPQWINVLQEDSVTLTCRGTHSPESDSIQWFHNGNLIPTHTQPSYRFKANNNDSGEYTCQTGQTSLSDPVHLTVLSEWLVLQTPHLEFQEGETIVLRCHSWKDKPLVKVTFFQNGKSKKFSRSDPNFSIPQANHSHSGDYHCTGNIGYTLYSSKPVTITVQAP

[4] = target: T5, human FcγRIIIaV extracellular domain, His-tagged (human, UniProt P08637 17-208); assay: as above
T5 construct: also called human FcγRIIIa (V158); FcgRIIIaV
T5 sequence (P08637 17-208 F176V): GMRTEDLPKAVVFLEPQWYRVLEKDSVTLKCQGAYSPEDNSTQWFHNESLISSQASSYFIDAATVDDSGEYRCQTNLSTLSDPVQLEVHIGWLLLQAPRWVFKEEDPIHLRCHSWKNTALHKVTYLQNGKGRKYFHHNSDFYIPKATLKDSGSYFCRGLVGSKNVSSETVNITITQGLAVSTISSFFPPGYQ

B1: MS1032LO21-SG1 (antibody, human IgG1, kappa, V domains shown)
VH: QVTLKESGPVLVKPTETLTLTCKVSGIDLSHDDISWVRQAPGKGLEWVSIISYAGSTYYASWAKGRLTISKDTSKNQVVLTMTNMDPVDTATYYCARGVPAYSHGGDLWGQGTLVTVSS
VL: DIVMTQSPATLSLSPGERATLSCTTSQSVYHENWLSWFQQKPGQPPKLLIYWASTLAYGVPSRFSGSGSGTDFTLTISSLQPEDAATYYCAGGYGGGRYAFGQGTKVEIKR
B1 was tested, and the Kd (Mouse latent myostatin) was 29.4 nM.

B2: M103205H795-MY476/M103202L889-SK1 (antibody)
chain 1: QVTLKESGPVLVKPTETLTLTCTVSGIDLSHDDISWVRQAPGKGLEWVGIISYAGSTYYASWAKGRLTISKDTSKNQVVLTMTNMDPVDTATYYCARGVPAYSHGGDLWGQGTLVTVSSASTKGPSVFPLAPSSKSTSGGTAALGCLVKDYFPEPVTVSWNSGALTSGVHTFPAVLQSSGLYSLSSVVTVPSSSLGTQTYICNVNHKPSNTKVDKKVEPKSCDKTHTCPPCPYPELLTGPSVFLFPPKPKDTLMISRTPEVTCVVVDVSDEDPEVKFNWYVDGVEVHNAKTKPREEQYNSTYRVVSVLTVLHQDWLNGKEYKCKVSNKALPKPIEKTISKAKGQPREPQVYTLPPSREEMTKNQVSLTCLVKGFYPSDIAVEWESNGQPENNYKTTPPVLDSDGSFFLYSKLTVDKSRWQQGNVFSCSVMHEALHNHYTQKSLSLSP
chain 2: DIVMTQSPATLSLSPGERATLSCTSSQSVYHANWLSWFQQKPGQPPKLLIYWASTLAYGVPSRFSGSGSGTDFTLTISSLQPEDAATYYCAGGYGGGRYAFGQGTKVEIKRTVAAPSVFIFPPSDEQLKSGTASVVCLLNNFYPREAKVQWKVDNALQSGNSQESVTEQDSKDSTYSLSSTLTLSKADYEKHKVYACEVTHQGLSSPVTKSFNRGEC
Work on B2 yielded a Kd [1] of 390 nM.

B3: M103205H795-MY450/M103202L889-SK1 (antibody, human IgG1, kappa, name in EU numbering)
heavy: QVTLKESGPVLVKPTETLTLTCTVSGIDLSHDDISWVRQAPGKGLEWVGIISYAGSTYYASWAKGRLTISKDTSKNQVVLTMTNMDPVDTATYYCARGVPAYSHGGDLWGQGTLVTVSSASTKGPSVFPLAPSSKSTSGGTAALGCLVKDYFPEPVTVSWNSGALTSGVHTFPAVLQSSGLYSLSSVVTVPSSSLGTQTYICNVNHKPSNTKVDKKVEPKSCDKTHTCPPCPAMELLTGPSVFLFPPKPKDTLMISRTPEVTCVVVDVSDEDPEVKFNWYVDGVEVHNAKTKPREEQYNSTYRVVSVLTVLHQDWLNGKEYKCKVSNKALPKPIEKTISKAKGQPREPQVYTLPPSREEMTKNQVSLTCLVKGFYPSDIAVEWESNGQPENNYKTTPPVLDSDGSFFLYSKLTVDKSRWQQGNVFSCSVMHEALHNHYTQKSLSLSP
light: DIVMTQSPATLSLSPGERATLSCTSSQSVYHANWLSWFQQKPGQPPKLLIYWASTLAYGVPSRFSGSGSGTDFTLTISSLQPEDAATYYCAGGYGGGRYAFGQGTKVEIKRTVAAPSVFIFPPSDEQLKSGTASVVCLLNNFYPREAKVQWKVDNALQSGNSQESVTEQDSKDSTYSLSSTLTLSKADYEKHKVYACEVTHQGLSSPVTKSFNRGEC
With B3 the “KD fold (SG1 = 1)” value [2] was 5.3 fold, the “KD fold (SG1 = 1)” value [3] was 9.8 fold and the “KD fold (SG1 = 1)” value [4] was 0.2 fold.
